{"source": "paper PMC3627194", "about": "“Xentry, a new class of cell-penetrating peptide uniquely equipped for delivery of drugs” (Scientific Reports, 2013)", "key": {"[1]": {"type": "in vitro ADME", "conditions": "FITC-labelled peptide incubated in serum 0, 1 and 4 h, then incubated with HepG2 cells; read-out cell uptake by fluorescence microscopy", "description": "(§1) Supplementary Figure 3. The D-isomeric form of Xentry aa 16-22 is cell permeable, and is stable in serum for at least 4 h.\n(§2) (a) FITC-labelled D-isomeric Xentry was incubated with HepG2 cells at concentrations of […] for 3 h.\n(§3) Uptake was recorded by fluorescence microscopy. Cell nuclei were stained with DAPI. (b) FITC-labelled L-isomeric and D-isomeric forms of Xentry were incubated in serum for 0, 1, and 4 h before incubation with HepG2 cells. Cell nuclei were stained with DAPI. Scale bar, 50 μm. […]"}, "HepG2 cells": {"system": "HepG2 cells", "assay": "Assay to test for cell permeability of peptides", "type": "cell-based", "conditions": "3 h", "description": "Figure 1 Cell-permeability of X-protein peptides. (a) X-protein peptides aa 1–20 and 16–35 are cell-permeable. Four FITC-labelled peptides encompassing aa 1–20, 16–35, 21–40 and 34–53 from the N-terminal region of the X-protein were incubated at 10 μM with HepG2 cells and their uptake by the cells recorded by confocal microscopy. Cell nuclei were stained blue with DAPI. (b) The sequence of the first 35 N-terminal residues of the HBV X-protein are shown with the sequence of Xentry (LCLRPVG; residues 16–22) highlighted in red. Short FITC-labelled peptides (10 μM) aa 16–26, 16–24 and 16–22 (Xentry) derived from peptide aa 16–35 also permeate HepG2 cells (upper panel). […] Cell nuclei were stained blue with DAPI. […] Cell nuclei were stained blue with DAPI. Scale bar, 50 μm.\nHepG2 cells (ATCC, Manassas, VA) were seeded into 8-well chamber slides at 1 × 10^5 cells per well in MEM media (Gibco, Life Technologies New Zealand Ltd) containing 10% FCS and PSG. […] L-isomeric peptides were diluted in 500 μl of MEM media without FCS, whereas D-isomeric peptides were diluted in the same media containing FCS, and each added to cells at a final concentration of 10 μM, or as indicated. The cells were incubated for 3 h at 37°C in a 5% CO2 atmosphere, washed with PBS, fixed with 4% formaldehyde for 30 min, and washed thrice with PBS. A drop of Prolong Gold anti-fade reagent with DAPI (Invitrogen, Life Technologies New Zealand Ltd) was added, and the cells mounted and examined with a Nikon E600 fluorescence microscope or a Leica TCS-SP2 confocal microscope.\nas §1, §2, §3"}, "syndecan-4": {"target": "T1, syndecan-4 (Homo sapiens, UniProt P31431)", "T1 construct": "endogenous in cells; host or cells: HepG2 (ATCC)", "T1 sequence (P31431 19-198)": "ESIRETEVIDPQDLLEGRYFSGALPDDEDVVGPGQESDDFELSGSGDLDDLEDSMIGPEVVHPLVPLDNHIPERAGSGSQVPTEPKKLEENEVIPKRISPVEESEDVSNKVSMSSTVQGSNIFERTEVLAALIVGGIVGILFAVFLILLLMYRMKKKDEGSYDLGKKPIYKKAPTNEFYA", "assay": "Anti-syndecan 4 antibody blockade of Xentry uptake by HepG2 cells", "type": "cell-based", "conditions": "FITC-lclrpvg 10 μM, 3 h", "description": "Cell nuclei were stained blue with DAPI. […] Scale bar, 50 μm.\nThe media was replaced with 500 μl of MEM media containing 10% FCS and either 1 μg/ml of a goat anti-human syndecan-4 antibody (R&D Systems, Minneapolis, MN), or 1 μg/ml of the control goat anti-human TNF-related apoptosis-inducing ligand (TRAIL) antibody (Santa Cruz Biotechnology Inc., Santa Cruz, CA). The cells were then incubated at 37°C and 5% CO2 for 30 min. FITC-labelled Xentry (FITC-lclrpvg) was added at a final concentration of 10 μM and the cells incubated for 3 h at 37°C in a 5% CO2 atmosphere. The cells were washed thrice with PBS, fixed with 4% formaldehyde for 15 min, washed with PBS, and DAPI added for visualization of cell nuclei. They were examined using a Nikon E600 fluorescence microscope, and photographed."}, "WM-266-4 melanoma cells [2]": {"system": "WM-266-4 melanoma cells", "assay": "Apoptosis of melanoma cells by Xentry-conjugated anti-B-raf antibody (annexin-V fluos)", "type": "cell-based", "conditions": "annexin-V fluos staining", "protocol": "HepG2 cells were seeded at 1 × 10^5 cells per well into 8-well chamber slides, and cultured overnight at 37°C in an atmosphere of 5% CO2. They were washed thrice with serum-free MEM media and resuspended in 500 μl of serum-free MEM. A 30 μl solution containing conjugation buffer, 0.85 μg of the Xentry peptide biotin-[sequence], 9 μg of a FITC-labelled rabbit IgG (Sigma, MO) or 1 μg of a rabbit polyclonal anti-B-raf antibody (Sigma, MO), and 4.8 μg of transglutaminase was incubated for 1 h at 37°C. The resulting conjugates were added to the cells, which were incubated for 3 h at 37°C and washed thrice with PBS. […] Cells incubated with the Xentry-anti-B-raf antibody conjugate were stained with annexin-V Fluos (Roche Diagnostics NZ Ltd., Auckland) to detect cell apoptosis. The cells were examined using a Nikon E600 fluorescence microscope, and photographed."}, "WM-266-4 melanoma cells [3]": {"system": "WM-266-4 melanoma cells", "assay": "Xentry-KALA fusion peptide delivery of anti-B-raf siRNA, apoptosis (annexin-V fluos)", "type": "cell-based", "conditions": "10 μM Xentry-KALA fusion peptide with 30 nM Tex615-labelled siRNA against B-raf, 72 h", "description": "Figure 3 Xentry-mediated delivery of antibody and siRNA cargoes into cells. (a) Uptake of Xentry-conjugated and unconjugated FITC-labelled rabbit IgG by HepG2 cells. Cell nuclei were stained blue with DAPI. (b) Representative cell showing staining of tubulin by a Cy3-labelled anti-β-tubulin antibody delivered to HepG2 cells by Xentry. HepG2 cells were incubated with the Xentry- anti-β-tubulin antibody conjugate for 1 h, washed, then incubated and photographed 24 h later. For comparison, a representative fixed and permeabilized cell is shown which has been stained by the free anti-β-tubulin antibody. […] (c) The abilities of a Xentry-conjugated and unconjugated anti-B-raf antibody to induce the apoptosis of WM-266-4 melanoma cells, as evidenced by staining of cells with annexin-V fluos (green). […] For comparison, the anti-B-raf siRNA was transfected into cells using the PolyMag agent. The siRNA was omitted from controls. Scale bar, 50 μm.\nA 600 μl solution was prepared containing 30 nM of a Tex615-labelled siRNA against B-raf (sense 5′-XAGAAUUGGAUCUGGAUCAUTTY-3′; antisense 5′-[…]-3′; X = C12 amino, Y = Tex615) (Integrated DNA Technologies, Iowa) and 10 μM of a Xentry-KALA fusion peptide (biotin-[…]; Peptide 2.0 Inc., Chantilly, VA). […] Cells were stained with annexin-V Fluos to detect apoptotic cells by fluorescence microscopy, and photographed. […]"}, "[4]": {"assay": "Biodistribution of a Xentry-β-galactosidase conjugate in mice (X-gal staining)", "type": "in vivo, Balb/c mice", "description": "One milligram of recombinant β-galactosidase (Medicago AB, Uppsala, Sweden) was cross-linked to 0.2 mg of a FITC-labelled Xentry peptide fused to a polyglutamine stretch (FITC-lclrpvggrrQQQQQQrr; Peptide 2.0 Inc., Chantilly, VA) with 4.8 μg of transglutaminase in 40 μl of transglutaminase buffer for 1 h at 37°C. […] Control mice (one mouse per time point) were intravenously injected with 1 mg of unconjugated β-galactosidase. The heart, lungs, liver, spleen, pancreas, kidneys, stomach, small intestine, colon, muscle and brain of each mouse were collected, and frozen at −80°C. Frozen organ sections were fixed in 0.25% glutaraldehyde for 15 min, washed thrice with PBS and stained with 1 mg/ml of X-gal (Sigma, MO) for 3 h at 37°C. The sections were washed thrice with PBS, examined by light microscopy and photographed."}, "live HepG2 cells": {"system": "live HepG2 cells", "conditions": "live unfixed cells, 3 h 37°C, β-galactosidase substrate C12FDG 10 min, fluorescence microscopy", "protocol": "(a) Visualization of the internalization of an unlabelled Xentry-β-galactosidase conjugate, and unconjugated β-galactosidase, after a 10 min incubation with live cells preloaded with the green fluorescent substrate C12FDG.\nHepG2 cells were seeded at 1 × 10^5 cells per well into 8-well chamber slides, and cultured overnight at 37°C in a 5% CO2 atmosphere. They were washed thrice with serum-free MEM media, and 500 μl of serum-free MEM added to the wells. A Xentry peptide (biotin-[sequence]; Peptide 2.0 Inc., Chantilly, VA) where LCLRP was fused to a polyglutamine stretch was conjugated to recombinant β-galactosidase. A 30 μl solution containing conjugation buffer (5 mM CaCl2, 1 mM DTT, 50 mM Tris-HCl), 0.84 μg of Xentry peptide, 16.5 μg of β-galactosidase (5 U; Sigma, MO), and 4.8 μg of transglutaminase (Ajinomoto, Itasca, IL) was incubated for 1 h at 37°C. The resulting conjugate was added to the cells, which were incubated for 3 h at 37°C. The cells were washed thrice with PBS, and the β-galactosidase substrate 5-dodecanoylaminofluorescein di-β-D-galactopyranoside (Imagene C12FDG; Invitrogen Life Technologies New Zealand Ltd) added, followed by incubation for 10 min at 37°C. The cells were washed, and examined using a Nikon E600 fluorescence microscope and photographed."}}, "note": "Non-standard residues stand in square brackets, D forms with d. Residues, ends and D or L forms follow the SMILES beside them. No end group written: not given here. *: point of attachment. FITC = O=C1OC2(c3ccc(O)cc3Oc3cc(O)ccc32)c2ccc(NC(=S)*)cc21; Biotin = O=C1N[C@H]2[C@H](CS[C@H]2CCCCC(=O)*)N1"}
{"compound": "CC(C)C[C@@H](NC(=O)[C@@H](CS)NC(=O)[C@@H](CC(C)C)NC(=S)Nc1ccc2c(c1)C(=O)OC21c2ccc(O)cc2Oc2cc(O)ccc21)C(=O)N[C@H](CCCNC(=N)N)C(=O)N1CCC[C@@H]1C(=O)N[C@@H](C(=O)NCC(=O)O)C(C)C", "note": "[D-isomeric form] ({FITC}-[dL][dC][dL][dR][dP][dV]G-OH)", "values": [{"measurement": "Time stable in serum", "setting": "[1]", "result": "at least 4 h"}, {"measurement": "Uptake into HepG2 cells at increasing concentrations", "setting": "HepG2 cells; FITC-labelled D-isomeric Xentry 10, 20, 50 and 100 µM", "result": "increased uptake"}, {"measurement": "Cell permeability (HepG2 cells)", "setting": "HepG2 cells; FITC-labelled D-isomeric Xentry, media containing FCS, fluorescence microscopy", "result": "cell-permeable"}, {"measurement": "Uptake by HepG2 cells after control anti-TRAIL antibody", "setting": "syndecan-4; 1 μg/ml control antibody against TRAIL", "result": "no effect"}, {"measurement": "Uptake by HepG2 cells after anti-syndecan-4 antibody", "setting": "syndecan-4; 1 μg/ml goat anti-human syndecan-4 antibody 30 min pre-incubation, MEM 10% FCS", "result": "blocked"}]}
{"compound": "Biotin-LCLRPVGGGRRRQQQQQQRRR [Xentry-anti-B-raf antibody conjugate, rabbit polyclonal anti-B-raf antibody conjugated to Xentry polyglutamine peptide]", "values": [{"measurement": "Apoptosis of WM-266-4 melanoma cells", "setting": "WM-266-4 melanoma cells [2]", "result": "undergo apoptosis"}]}
{"compound": "Biotin-LCLRPVGGGWEAKLAKALAKALAKHLAKALAKALKACEA (cysteine pairing not given here) [Xentry-KALA fusion peptide, tested as complex with anti-B-raf siRNA]", "values": [{"measurement": "Apoptosis of WM-266-4 melanoma cells", "setting": "WM-266-4 melanoma cells [3]", "result": "causing cell apoptosis"}]}
{"compound": "FITC-lclrpvggrrQQQQQQrr [Xentry-β-galactosidase conjugate, recombinant β-galactosidase cross-linked to FITC-labelled D-form Xentry polyglutamine peptide (injected into mice)]", "values": [{"measurement": "Retention in stained organs at 1 h, except for the brain", "setting": "[4]; 1 mg i.v., 1 h, intensity of staining diminished", "result": "retained the bioactive conjugate"}, {"measurement": "β-galactosidase activity in organs at 6 h", "setting": "[4]; 1 mg i.v., 6 h", "result": "only the spleen and small intestine retained some β-galactosidase activity"}, {"measurement": "β-galactosidase activity in organs by 24 h", "setting": "[4]; 1 mg i.v., 24 h, data not shown", "result": "completely lost"}, {"measurement": "Distribution within organs", "setting": "[4]; 1 mg i.v., X-gal stained sections", "result": "concentrated in the enterocytes of the small intestine, epithelium of the stomach, and in the marginal zone or marginal sinus of the spleen"}, {"measurement": "Staining of pancreas, colon and muscle at 15 min", "setting": "[4]; 1 mg i.v., data not shown", "result": "poorly stained"}, {"measurement": "X-gal staining of organs at 15 min", "setting": "[4]; 1 mg i.v., lungs, liver, spleen, kidneys, stomach, small intestine, colon, muscle, brain listed as stained", "result": "most of the organs stained blue"}]}
{"compound": "unconjugated β-galactosidase: recombinant β-galactosidase without Xentry, control [reference compound]", "values": [{"measurement": "Uptake by live HepG2 cells", "setting": "live HepG2 cells", "result": "not"}, {"measurement": "X-gal staining of organs", "setting": "[4]; 1 mg unconjugated β-galactosidase i.v., one mouse per time point, data not shown", "result": "did not stain"}]}
